Measurements as given in US20160333092A1 (ORDER MADE MEDICAL RESEARCH, published 2016).

T1: partial protein of the extracellular region of SLC6A6 (amino acid residues 143 to 216, E. coli recombinant) (human, UniProt P31641 143-216)
T1 construct: also called SLC6A6 partial protein; recombinant protein
T1 sequence: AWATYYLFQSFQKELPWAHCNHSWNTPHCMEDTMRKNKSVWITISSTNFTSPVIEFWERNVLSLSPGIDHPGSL

T2: human SLC6A6 (solute carrier family 6 (neurotransmitter transporter, taurine), member 6) (human, UniProt P31641 1-620)
T2 construct: also called native SLC6A6; SLC6A6 on the cell membrane
T2 sequence: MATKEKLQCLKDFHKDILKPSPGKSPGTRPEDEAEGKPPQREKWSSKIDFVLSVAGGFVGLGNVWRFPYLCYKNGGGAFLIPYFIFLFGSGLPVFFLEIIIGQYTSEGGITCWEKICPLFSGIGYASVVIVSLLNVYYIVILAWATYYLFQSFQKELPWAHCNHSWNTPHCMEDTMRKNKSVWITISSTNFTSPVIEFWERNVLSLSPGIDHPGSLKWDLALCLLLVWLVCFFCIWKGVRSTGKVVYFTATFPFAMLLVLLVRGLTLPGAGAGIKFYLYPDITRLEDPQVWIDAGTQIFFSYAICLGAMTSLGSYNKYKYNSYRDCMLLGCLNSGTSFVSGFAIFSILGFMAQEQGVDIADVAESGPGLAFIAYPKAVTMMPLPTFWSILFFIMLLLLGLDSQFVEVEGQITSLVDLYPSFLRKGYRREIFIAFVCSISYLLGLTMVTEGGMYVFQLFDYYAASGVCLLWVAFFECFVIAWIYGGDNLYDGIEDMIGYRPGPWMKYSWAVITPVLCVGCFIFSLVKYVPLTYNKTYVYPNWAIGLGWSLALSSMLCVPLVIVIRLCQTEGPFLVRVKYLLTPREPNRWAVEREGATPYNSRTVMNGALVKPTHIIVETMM

B1: monoclonal antibody produced from mouse-mouse hybridoma 205 (antibody, V domains shown)
VH: VKLQQSGPELVKPGASVKMSCKASGYTFTSYVMHWVKQKPGQGLEWIGYINPYNDGTKYNEKFKGKATLTSDKSSSTAYMELSSLTSEDSAVYYCARRKAWFAYWGQGTLVTVSA
VL: DIQMTQSPASQSASLGESVTITCLASQTIGTWLAWYQQKPGKSPQLLIYAATSLADGVPSRFSGSGSGTKFSFKISSLQAEDFVSYYCQQLYSTPLTFGGGTKLEIK
B2: monoclonal antibody produced from mouse-mouse hybridoma 303 (antibody, V domains shown)
VH: VQLQQPGAEFVKPGTSVKLSCKASGYNFTRYWINWVKLRPGQGLEWIGNIYPATNGINYNEKFKSKATLTVDTFSSTAYMQLSSLASEDSGLYYCARCKTMLSRCAWFPYWGQGTLVTVSA
VL: DIQMTQTTSSLSASLGDRVTINCRASQDISNYLNWYQQKPDGTVKLLIYDTSRLHSRVPSRFSGSGSGTDYSLTISNLEQEDIATYFCQQGNMLPWTFGGGTKLEIK
B3: monoclonal antibody produced from mouse-mouse hybridoma 419 (antibody, V domains shown)
VH: IQLQQSGPELVKPGASVKVSCKAFGYAFTRHNMYWVKQRHGKCLEWIGYIDPFNGGTSYNQKFKGKATLTVDKSSSTAYMHLNSLTSEDSAVYYCARVYGNYAWFAYWGQGTLVTVSA
VL: DIVMTQSHKFMSTSVGDRVSITCKASQDVSTAVAWYQQIPGQSPKLLIYSSSYRYTGVPDRFTGSGSGTDFTFTISSVQAEDLAVYYCQQHYNTPWTFGGGTKLEIK
B4: monoclonal antibody produced from mouse-mouse hybridoma 422 (antibody, V domains shown)
VH: VQLQQSGPEVVKPGPSLRMSCKASGYFFTGNSMNWVKKTHGRSLEWIGLIDLSNGETRFNQKFKGKATLTVDKSSGTAYMELLNLTSEDSAVYYCASRSAMIMPCFSHWGQGTLVTVSA
VL: DIVMTQSHNFMSTSIGDRVNITCKASQDVATAVAWFQQKPGQSPKLLIYWTSTRHTGVPDRFTGSGYGTDFTLTISHVQSEDLADYFCQQYDTYPYTFGGGTKLEIK
notes: also called 422 antibody; antibody clone 422
B5: human-mouse chimeric 205 antibody (antibody, human IgG1, kappa, V domains shown)
VH: QVKLQQSGPELVKPGASVKMSCKASGYTFTSYVMHWVKQKPGQGLEWIGYINPYNDGTKYNEKFKGKATLTSDKSSSTAYMELSSLTSEDSAVYYCARRKAWFAYWGQGTLVTVSA
VL: DIQMTQSPASQSASLGESVTITCLASQTIGTWLAWYQQKPGKSPQLLIYAATSLADGVPSRFSGSGSGTKFSFKISSLQAEDFVSYYCQQLYSTPLTFGGGTKLEIKR
notes: Human IgG1 / human kappa constant regions

Tests used:
[1] = target: T1, partial protein of the extracellular …; experiment: ELISA on coated recombinant SLC6A6 partial protein (residues 143-216), HRP-labelled secondary antibody
Procedure: The recombinant protein obtained in (4) above (10 μg/ml) was dispensed in 100 μL volumes into MaxiSorp 96-well plates (Nunc) and adsorbed onto the plates at room temperature for 1 hour. After adsorption, each well was washed with TBS-T (TBS-T (25 mM Tris, 150 mM NaCl, 0.05% (v/v) Tween 20, pH 7.4) and charged with skimmed milk (GIBCO), which had been diluted to 5% with TBS-T, to conduct blocking for 30 minutes at room temperature. After each well was washed three times with 200 μL of TBS-T, mouse plasma samples collected from the tail vein were each diluted 1/2000-fold with TBS-T and added to the ELISA plates in a volume of 100 μL per well, followed by reaction at room temperature for 1 hour. Each well was washed three times with 200 μL of TBS-T.
The thus obtained monoclonal antibody-producing hybridoma cells were cultured in ten 10 cm dishes to reach 90% confluency and then cultured for 10 days in a 1:1 mixture of HT medium (Invitrogen) and EX CELL Sp2/0 (Nichirei Bioscience Inc., Japan). The culture supernatants were collected and purified with a Protein G column. The Protein G column (GE Healthcare) was used in a volume of 0.5 mL relative to 100 mL of the culture supernatant. The cultured solutions were each passed at a flow rate of 1 to 3 ml/min through the Protein G column which had been equilibrated with PBS(−), followed by washing with 6 mL of washing buffer (25 mM Tris-HCl (pH 7.4), 140 mM NaCl, 10 mM KCl). Then, antibody proteins were eluted with 1 mL of elution buffer (0.1 M glycine-HCl (pH 2.5) or 0.1 M glycine-HCl (pH 3.0)) and neutralized with 0.5 M Tris-HCl (pH 7.4) to be within pH 7.0 to 7.4. The antibodies were concentrated with Amicon Ultra 30 (Millipore) and the buffer was replaced with PBS(−).

[2] = target: T2, human SLC6A6 (solute carrier family 6 …); experiment: immunocytological staining of formalin-fixed HT-29 and LoVo cells, antibody 10 ug/mL; compared with 4B9b and 5H12d
Procedure: (§1) Moreover, as controls for comparison purposes, the anti-SLC6A6 antibodies “4B9b” and “5H12d” disclosed in WO2012/029990 were also analyzed in the same manner. Hereinafter, antibodies produced by hybridoma cells are also represented by their respective clone numbers.
(§2) HT-29 and LoVo cells were cultured to reach 80% confluency and then seeded onto cover slips coated with Cellmatrix Type I-A (Nitta Gelatin Inc., Japan). After culture for 2 days, the cells were fixed with 10% neutral buffered formalin (WAKO). After being treated with 0.3% (v/v) aqueous hydrogen peroxide for 20 minutes, the cover slips were washed three times with TBST and treated with TBST containing 5% (w/v) skimmed milk, followed by addition of the antibodies purified in (7) above at a concentration of 10 μg/mL and reaction at 4° C. for 16 hours. […] After washing three times with TBST, the cover slips were sealed with Mounting Medium (Vector Shield).

[3] = target: T2, human SLC6A6 (solute carrier family 6 …); experiment: immunocytological staining of formalin-fixed HT-29 and LoVo cells, antibody 10 ug/mL
Procedure: as §1, §2

[4] = target: T2, human SLC6A6 (solute carrier family 6 …); experiment: binding activity on HCT15 and HT-29 cells, antibody 10 ug/mL, anti-human IgG-HRP secondary antibody
Procedure: In this case, the antibody concentration was set to 10 μg/mL.

Binder | binding result [1] | binding result [2] | binding result [3] | binding result [4]
B1 | binds | binds |  | 
B2 | binds | binds |  | 
B3 | binds | binds |  | 
B4 | binds |  | binds | 
B5 |  |  |  | binds
